Data as given in US20050037969A1 (ARBOR VITA, published 2005).
Ends that are not written are not given here. * marks the point of attachment. Biotin = O=C1N[C@H]2[C@H](CS[C@H]2CCCCC(=O)*)N1

B1: Clasp-2 C-terminal peptide AA2L, biotinylated (peptide)
peptide: Biotin-ISGTPTSTMVHGMTSSSSVV
B2: CD5 C-terminal peptide AA49L (peptide)
peptide: Biotin-SMQPDNSSDSDYDLHGAQRL
notes: Only the last four residues are seen in the excerpts
B3: CD105 C-terminal peptide AA16L, biotinylated (peptide)
peptide: Biotin-STNHSIGSTQSTPCSTSSMA
notes: also called CD105 (endoglin)

Target: T1, GST-TAX-IP40 PDZ domain fusion protein (human, UniProt Q6B4M5 150-252 (rat entry))
T1 construct: also called TAX40; not shown: glutathione S-transferase encoded by vector pGEX-3X (Pharmacia)
T1 sequence: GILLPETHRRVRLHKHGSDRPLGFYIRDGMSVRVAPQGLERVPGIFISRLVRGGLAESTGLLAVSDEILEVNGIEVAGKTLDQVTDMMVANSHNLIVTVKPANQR
Experiment: A/G assays

Binding result, no binding:
B1
B2
B3

Target: T2, MINT3 PDZ-GST fusion protein
T2 construct: Order of GST and PDZ part and limits not seen in the excerpts
T2 chain: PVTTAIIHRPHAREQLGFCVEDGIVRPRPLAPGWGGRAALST
Experiment: A/G assays

Binding result, no binding:
B1
B2
B3

Target: T3, GST-AF6 PDZ domain fusion protein (Homo sapiens (Human), UniProt P55196 1001-1093)
T3 construct: also called af-6 protein; not shown: glutathione S-transferase encoded by vector pGEX-3X (Pharmacia)
T3 sequence: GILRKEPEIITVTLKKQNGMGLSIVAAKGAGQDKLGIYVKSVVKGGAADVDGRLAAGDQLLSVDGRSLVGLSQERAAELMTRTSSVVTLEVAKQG
Experiment: A/G assays

Binding result, no binding:
B1
B2
B3

Target: T4, K858 PDZ-GST fusion protein (Homo sapiens (Human), UniProt Q8WWI1 1038-1131)
T4 construct: Order of GST and PDZ part and limits not seen in the excerpts
T4 sequence: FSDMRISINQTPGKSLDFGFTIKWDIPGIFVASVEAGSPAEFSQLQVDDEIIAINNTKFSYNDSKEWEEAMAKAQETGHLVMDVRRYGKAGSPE
Experiment: A/G assays

Binding result, no binding:
B1
B2
B3

Target: T5, GST-RGS12 PDZ domain fusion protein (human, UniProt O14924 17-85)
T5 construct: also called human regulator of G-protein signalling 12; not shown: glutathione S-transferase encoded by vector pGEX-3X (Pharmacia)
T5 sequence: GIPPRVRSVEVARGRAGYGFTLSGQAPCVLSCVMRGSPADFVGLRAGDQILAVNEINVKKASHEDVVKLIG
Experiment: A/G assays

Binding result, no binding:
B1
B2
B3

Target: T6, GEF PDZ-GST fusion protein (Homo sapiens (Human), UniProt Q8TEU7 293-400)
T6 construct: The label GEF is not explained in the excerpts
T6 sequence: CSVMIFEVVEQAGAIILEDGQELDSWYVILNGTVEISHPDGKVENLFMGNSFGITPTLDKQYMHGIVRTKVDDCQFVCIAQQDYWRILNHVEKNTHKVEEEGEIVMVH
Experiment: A/G assays

Binding result, no binding:
B1
B2
B3

Target: T7, X11β PDZ-GST fusion protein (Rattus norvegicus (Rat), UniProt O35431 560-745)
T7 construct: Order of GST and PDZ part and limits not seen in the excerpts
T7 chain: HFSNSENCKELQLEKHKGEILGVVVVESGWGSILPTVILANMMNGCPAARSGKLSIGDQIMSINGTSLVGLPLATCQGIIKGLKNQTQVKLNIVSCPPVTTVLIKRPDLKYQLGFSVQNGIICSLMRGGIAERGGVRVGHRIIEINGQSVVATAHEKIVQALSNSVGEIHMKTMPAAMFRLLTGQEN
Experiment: A/G assays

Binding result, no binding:
B1
B2
B3

Target: T8, GST-KIAA0303 PDZ domain fusion protein (Homo sapiens (Human), UniProt O15021 1138-1228)
T8 construct: also called K303; not shown: glutathione S-transferase encoded by vector pGEX-3X (Pharmacia)
T8 sequence: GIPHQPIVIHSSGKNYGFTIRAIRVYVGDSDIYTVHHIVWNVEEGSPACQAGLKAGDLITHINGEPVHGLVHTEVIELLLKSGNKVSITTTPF
Experiment: A/G assays

Binding result, no binding:
B1
B2
B3

Target: T9, GST-cytohesin binding protein PDZ domain fusion protein (Homo sapiens (Human), UniProt O60759 74-165)
T9 construct: also called CBP; not shown: glutathione S-transferase encoded by vector pGEX-3X (Pharmacia)
T9 sequence: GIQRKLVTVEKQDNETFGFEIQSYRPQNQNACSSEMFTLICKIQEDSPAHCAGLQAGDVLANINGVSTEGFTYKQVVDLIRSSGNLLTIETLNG
Experiment: A/G assays

Binding result, no binding:
B1
B2
B3

Target: T10, NSP PDZ-GST fusion protein (Homo sapiens (Human), UniProt Q92743 370-466)
T10 construct: The label NSP is not explained in the excerpts
Experiment: A/G assays

T10 sequence (Q92743 other isoform, or with tags, fused parts or gaps limits assumed): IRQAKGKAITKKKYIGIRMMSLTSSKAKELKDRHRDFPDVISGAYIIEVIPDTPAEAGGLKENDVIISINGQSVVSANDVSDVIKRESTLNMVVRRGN

Binding result, no binding:
B1
B2
B3

Target: T11, TAX-IP2L PDZ-GST fusion protein (Homo sapiens (Human), UniProt Q8TF64 107-197)
T11 construct: Order of GST and PDZ part and limits not seen in the excerpts
T11 sequence: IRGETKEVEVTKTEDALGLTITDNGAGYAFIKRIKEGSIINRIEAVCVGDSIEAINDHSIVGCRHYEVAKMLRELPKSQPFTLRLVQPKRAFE
Experiment: A/G assays

Binding result, no binding:
B1
B2
B3

Target: T12, KIAA0807 (PDZ domain)-GST fusion protein (human, UniProt Q6P0Q8 1104-1192)
T12 construct: also called K807; KIAA807; not shown: glutathione S-transferase encoded by vector pGEX-3X (Pharmacia)
T12 sequence: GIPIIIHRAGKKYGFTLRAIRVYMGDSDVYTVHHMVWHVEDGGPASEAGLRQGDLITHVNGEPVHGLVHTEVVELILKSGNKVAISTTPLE
Experiment: A/G assays

Binding result, no binding:
B1
B2
B3

Target: T13, ConEn PDZ-GST fusion protein (Homo sapiens (Human), UniProt Q969H4 193-287)
T13 construct: The label ConEn is not explained in the excerpts
T13 sequence: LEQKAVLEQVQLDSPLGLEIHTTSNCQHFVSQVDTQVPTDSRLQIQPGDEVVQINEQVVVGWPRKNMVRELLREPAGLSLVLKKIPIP
Experiment: A/G assays

Binding result, no binding:
B1
B2
B3

Target: T14, GST-DLG5 (p-dlg) PDZ domain fusion protein (Human, UniProt Q8TDM6 1343-1583)
T14 construct: also called Human discs large protein p-dlg; not shown: glutathione S-transferase encoded by vector pGEX-3X (Pharmacia)
T14 sequence: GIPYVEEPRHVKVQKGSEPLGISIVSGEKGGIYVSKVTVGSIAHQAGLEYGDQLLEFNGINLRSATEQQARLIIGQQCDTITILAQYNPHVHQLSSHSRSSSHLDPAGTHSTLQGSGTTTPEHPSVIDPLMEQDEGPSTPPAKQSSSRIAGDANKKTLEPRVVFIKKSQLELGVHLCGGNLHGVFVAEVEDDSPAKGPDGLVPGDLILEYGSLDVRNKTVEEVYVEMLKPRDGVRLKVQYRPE
Experiment: A/G assays

Binding result, no binding:
B1
B2
B3

Target: T15, GST-CASK PDZ domain fusion protein (Homo sapiens, UniProt O14936 486-575)
T15 construct: also called Homo sapiens CASK protein
T15 sequence: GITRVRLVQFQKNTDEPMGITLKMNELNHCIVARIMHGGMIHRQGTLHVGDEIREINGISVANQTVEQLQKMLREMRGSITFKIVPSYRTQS
Experiment: A/G assays

Binding result, no binding:
B1
B2
B3
